These results are taken from paper PMC11746035 (Frontiers in Immunology, 2024).

First the molecules themselves.
B1: BD56-595 (antibody, V domains shown)
VH: QITLKESGPTLVKPTQTLTLTCTFSGFSITTAGVGVGWIRQPPGKALEWLALIYWDGDRRYSPSLKNRVDITTDISKNQVVLTMTNMAPVDTATYYCAQHTIDMILDYWGQGTLVTVSS
VL: QSALTQPPSASGSPGQSVTISCTATSSDVGAYNYVSWYQQHPGKAPKLMIYEVNKRPSGVPDRFSGSKSGNTASLTVSGLQAEDEADYYCSSYTDNIVFGTGTRVTVL
notes: heavy chain of BD56-595 (IGHV2-5*02, D56), not modified; light chain of BD56-595; IgG1; source: Expi 293, transfected, purified (protein A)
B2: BD57-028 (antibody, V domains shown)
VH: QITLKESGPTLVKPTQTLTLTCTFSGFSLSASGEGMGWIRQPPGKALEWLALIYWDADERYSPSLRSRLTITKDTSKNQVVLKMTNMNPVDTATYYCAHHSITTVVDYWGQGMLVTVSS
VL: QSALTQPASVSGSPGQSITISCTGTISDVGAFNYVSWYQQHPGRAPKLIIYDVSTRPSGISIRFSGSKSGNTASLTISGLQPEDEADYYCSSYSHTSLVFGTGTKVTVL
notes: heavy chain of BD57-028 (IGHV2-5*02, D56), not modified; light chain of BD57-028; IgG1; source: Expi 293, transfected, purified (protein A)
B3: LY-CoV1404 (antibody, V domains shown)
VH: QITLKESGPTLVKPTQTLTLTCTFSGFSLSISGVGVGWLRQPPGKALEWLALIYWDDDKRYSPSLKSRLTISKDTSKNQVVLKMTNIDPVDTATYYCAHHSISTIFDHWGQGTLVTVSS
VL: QSALTQPASVSGSPGQSITISCTATSSDVGDYNYVSWYQQHPGKAPKLMIFEVSDRPSGISNRFSGSKSGNTASLTISGLQAEDEADYYCSSYTTSSAVFGGGTKLTVL
notes: heavy chain of LY-CoV1404 (IGHV2-5*02, D56), not modified; variable region in PDB 7MMO; light chain of LY-CoV1404; IgG1; source: Expi 293, transfected, purified (protein A)
B4: BD56-1290 (antibody, V domains shown)
VH: QITLKESGPTLVKPTQTLTLTCTFSGFSLSTSGVGVGWIRQPPGKALEWLALIYWDDDSRYSPSLKTRLTITKDTSKNQVVLTLTNMDPVDTATYYCGHFTIDMIVGYWGQGTLVTVSS
VL: QSALTQPASVSGSPGQSITISCTATSIDVGAFHYVSWYQHHPGKAPKLIIFDVTNRPSGVSNRFSGSKSGNTASLTISGLQAEDEADYYCSSYTDSTVVFGGGTKLTVL
notes: heavy chain of BD56-1290 (IGHV2-5*02, D56), not modified; light chain of BD56-1290; IgG1; source: Expi 293, transfected, purified (protein A)
B5: XGv-265 (antibody, V domains shown)
VH: QITLKESGPTLVKPTQTLTLTCNFSGFSLNTYGVGVGWIRQPPGKALEWLALIYWDGDERYGPFFKNKVTIAKDTSKNQVVLTMTNMDPVDTATYYCARHLIPTIFDYWGQGTLVTVSS
VL: QSALTQPASVSGSPGQSITISCTGTSSDVGGSNYVSWYQHHPDRAPKLLIYEVTNRPSGVSNRFSGSKSANTASLTISGLQAEDEADYYCSSYTTTSTHILFGGGTKLTV
notes: heavy chain of XGv-265 (IGHV2-5*02, D56), not modified; light chain of XGv-265; IgG1; source: Expi 293, transfected, purified (protein A)

For this assay, the target named is T1, SARS-CoV-2 WT RBD (SARS-CoV-2, WT (ancestral) strain, UniProt P0DTC2).
T1 construct: also called wild-type L452 RBD
Kind of assay: BLI; antibody (IgG1, 11 μg/mL) loaded on AHC2 biosensor to about 1.5 nm; RBD in solution, association 300 s, dissociation 600 s; PBS-TB (PBS, 0.02% v/v Tween-20, 0.1% w/v BSA); 25°C; 1,000 rpm; binding response less than 0.1 considered non-binding. The settings on record: both partners purified.
In the case of B1, the binding result is given as “binds”. To B2 belongs “binds”.

Turning to B3, the binding result is “binds”.

For B4, the binding result is on record as “binds”. Next, B5: “binds”.
